Values quoted from earlier work, collected in publication PMC6478893.

Molecular target: Glu73 (UniProt position 86, GLTFTEKWNTD)

For “Voltage-dependent anion channel 1 (VDAC1) (Mus musculus (inferred from the title of ref. 51, 'mVDAC1'; the article text says only 'VDAC1'))”, the pKa is given as roughly 7.4.
